Consider 32 sequences from the supplement of paper PMC9170038.

This data set deals with MS2 coat protein. The experiment in a line: apparent KD of MS2 coat protein; designed switch direction (-1 OFF switch, 1 ON switch): -1; higher = weaker reporter binding. Put shortly:
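For each design, the apparent KD is the median over clusters of curves fitted to normalised cluster fluorescence. Clusters held RNA switches with common flanks, transcribed on Illumina chips by stalled E. coli RNA polymerase. These were titrated with SNAP-549-labelled MS2 coat protein, doubling from 0.7 or 1.5 nM to 3 µM, without input, with 200 uM small-molecule ligand, or with an oligonucleotide input.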

Where [1] appears, read: Eterna round: R95, input ligand: microRNA oligo, concentration not stated.
The mark [2] stands for this setting: input ligand: microRNA oligo, concentration not stated.
[3] abbreviates: Eterna round: R95, input ligand: FMN 200 uM.
Setting [4] is: Eterna round: R95, input ligand: none.

With “CAGUACAGAGGAUAUACAUGAGGAUCACCCAUGUGUUUCAGCUAGGAAACUAGCGAAUGUAGAAGGCUGUACUG [jl-ex3-4.24 salish99 mod] (Eterna round: R97, puzzle: Exclusion 3)”, the “apparent KD of MS2 coat protein” value by setting is: (input ligand: FMN 200 uM) 178 nM; (input ligand: none) 38.3 nM.
In the same order, the values of “CAGUACUGAGGAUAUACAUGAGGAUCACCCAUGUAAUAAUCGUAGGAAACUACGAUAUGUAGAAGGCAGUACUG [Eli x3 4.04] (Eterna round: R97, puzzle: Exclusion 3)” are 16 nM and 13.1 nM.
The matching figures for “CAGUACUGAGGAUAUACAUGAGGAUCACCCAUGUGAGUGAUACUAGUGAGGUCGAUUAGUAGAAGGCAGUACUG [Mat X3R4 m27] (Eterna round: R97, puzzle: Exclusion 3)”: 1110 nM and 123 nM.
The matching figures for “CAGUACUGAGGAUAUACAUGAGGAUCACCCAUGUGAUUCAGUGCACGCGUACGUGUACGUAGAAGGCAGUACUG [JL 3.27 m2] (Eterna round: R97, puzzle: Exclusion 3)”: 761 nM and 49 nM.
“CAGUACUGAGGAUAUACAUGAGGAUCACCCAUGUGCCUAAGCUAGGAUACUAGCAUUAGUAGAAGGCAGUACUG [Fiskers Ex 3 828 mod 15] (puzzle: Exclusion 3)”: the “apparent KD of MS2 coat protein” value under setting [1] was 13.6 nM.
As for “CAGUACUGAGGAUAUACAUGAGGAUCACCCAUGUGCUUUAGCUAGGAUACUAGCACUAGUAGAAGGCAGUACUG [Fiskers Ex 3 828 mod 10] (puzzle: Exclusion 3)”, under setting [1], the “apparent KD of MS2 coat protein” value was found to be 12.3 nM.
In the case of “CAGUACUGAGGAUAUACAUGAGGAUCACCCAUGUGUCCCAGCUAGGAAACUAGCAAAAGUAGAAGGCAGUACUG [828 mod 2 m4] (Eterna round: R97, puzzle: Exclusion 3)”, the “apparent KD of MS2 coat protein” value (input ligand: FMN 200 uM) was determined as 622 nM and the “apparent KD of MS2 coat protein” value (input ligand: none) was 28.1 nM.
Regarding “CAGUACUGAGGAUAUACAUGAGGAUCACCCAUGUGUCCCAGCUAGGAAACUAGCAAAAGUAGAAGGCAGUACUG [Fiskers Ex 3 828 mod 1] (Eterna round: R96, puzzle: Exclusion 3)”, the “apparent KD of MS2 coat protein” value under setting [2] was 20.6 nM.
Regarding “CAGUACUGAGGAUAUACAUGAGGAUCACCCAUGUGUCCCAGCUAGGAAACUAGCAAAAGUAGAAGGCAGUACUG [Fiskers Ex 3 828 mod 1] (puzzle: Exclusion 3)”, the “apparent KD of MS2 coat protein” value runs as follows: under setting [3], 420 nM; under setting [1], 24.4 nM; under setting [4], 24.5 nM.
For the sequence “CAGUACUGAGGAUAUACAUGAGGAUCACCCAUGUGUCUUCUAUUAGGAAACUAGUUAUGUAGAAGGCAGUACUG [Omei Ex3 Mod of Eli 4.27 v8] (Eterna round: R97, puzzle: Exclusion 3)”, the “apparent KD of MS2 coat protein” value is, setting by setting: (input ligand: FMN 200 uM) 221 nM; (input ligand: none) 16.9 nM.
The matching figures for “CAGUACUGAGGAUAUACAUGAGGAUCACCCAUGUGUGUGAGUUUUGGAUGAAUGUUAUGUAGAAGGCGGUGCUG [JR_Ex3_Sub036] (Eterna round: R97, puzzle: Exclusion 3)”: 179 nM and 466 nM.
Consider “CAGUACUGAGGAUAUACAUGAGGAUCACCCAUGUGUGUGAGUUUUGUAUGAAUGUUAUGUAGAAGGCGGUGCUG [JR_Ex3_Sub034] (Eterna round: R97, puzzle: Exclusion 3)”, for which the “apparent KD of MS2 coat protein” value by setting is: (input ligand: FMN 200 uM) 285 nM; (input ligand: none) 504 nM.
With “CAGUACUGAGGAUAUACAUGAGGAUCACCCAUGUGUUCCAGCUAGGAAACUAGCAAAAGUAGAAGGCAGUACUG [Ex3: 828] (Eterna round: R96, puzzle: Exclusion 3)”, the “apparent KD of MS2 coat protein” value runs as follows: (input ligand: FMN 200 uM) 646 nM; under setting [2], 22.1 nM; (input ligand: none) 25.9 nM.
Turning to “CAGUACUGAGGAUAUACAUGAGGAUCACCCAUGUGUUCCAGCUAGGAAACUAGCAAAAGUAGAAGGCAGUACUG [salish99_ex3_r3_064] (puzzle: Exclusion 3)”, the “apparent KD of MS2 coat protein” value by setting is: under setting [3], 285 nM; under setting [1], 19.6 nM; under setting [4], 22.4 nM.
As to “CAGUACUGAGGAUAUACAUGAGGAUCACCCAUGUGUUCCAGCUAGGAAACUAGCAAGAGUAGAAGGCAGUACUG [salish99_ex3_r3_066] (Eterna round: R96, puzzle: Exclusion 3)”, the “apparent KD of MS2 coat protein” value (input ligand: FMN 200 uM) is 543 nM, the “apparent KD of MS2 coat protein” value under setting [2] amounted to 18.5 nM and the “apparent KD of MS2 coat protein” value (input ligand: none) turned out to be 22.9 nM.
For the sequence “CAGUACUGAGGAUAUACAUGAGGAUCACCCAUGUGUUCCAGCUAGGAAACUAGCAAGAGUAGAAGGCAGUACUG [salish99_ex3_r3_066] (puzzle: Exclusion 3)”, the “apparent KD of MS2 coat protein” value under setting [1] amounted to 24.1 nM.
Turning to “CAGUACUGAGGAUAUACAUGAGGAUCACCCAUGUGUUCCAGCUAGGAAACUAGCAAGUGUAGAAGGCAGUACUG [Salish 065 m7] (Eterna round: R97, puzzle: Exclusion 3)”, the “apparent KD of MS2 coat protein” value is, setting by setting: (input ligand: FMN 200 uM) 1090 nM; (input ligand: none) 410 nM.
As for “CAGUACUGAGGAUAUACAUGAGGAUCACCCAUGUGUUCCAGCUAGGAGACUAGCAAAAGUAGAAGGCAGUACUG [salish99_ex3_r3_074] (Eterna round: R96, puzzle: Exclusion 3)”, the “apparent KD of MS2 coat protein” value (input ligand: FMN 200 uM) stood at 523 nM, the “apparent KD of MS2 coat protein” value under setting [2] came to 20 nM and the “apparent KD of MS2 coat protein” value (input ligand: none) amounted to 25.1 nM.
On to “CAGUACUGAGGAUAUACAUGAGGAUCACCCAUGUGUUCCAGCUAGGAGACUAGCAAAAGUAGAAGGCAGUACUG [salish99_ex3_r3_074] (puzzle: Exclusion 3)”, for which, under setting [1], the “apparent KD of MS2 coat protein” value was 23.5 nM.
As to “CAGUACUGAGGAUAUACAUGAGGAUCACCCAUGUGUUCCAGCUAGGAUACUAGCAAGUGUAGAAGGCAGUACUG [Mat - Exclusion 3 - Eli Mod - D7] (Eterna round: R97, puzzle: Exclusion 3)”, the “apparent KD of MS2 coat protein” value stood at 188 nM (input ligand: FMN 200 uM) and 396 nM (input ligand: none).
Take “CAGUACUGAGGAUAUACAUGAGGAUCACCCAUGUGUUCCAGCUAGGGAACUAGCAAAAGUAGAAGGCAGUACUG [salish99_ex3_r3_075] (Eterna round: R96, puzzle: Exclusion 3)”: the “apparent KD of MS2 coat protein” value (input ligand: FMN 200 uM) turned out to be 455 nM, the “apparent KD of MS2 coat protein” value under setting [2] was 20.4 nM and the “apparent KD of MS2 coat protein” value (input ligand: none) was 25 nM.
In the case of “CAGUACUGAGGAUAUACAUGAGGAUCACCCAUGUGUUCCAGCUAGGGAACUAGCAAAAGUAGAAGGCAGUACUG [salish99_ex3_r3_075] (puzzle: Exclusion 3)”, under setting [1], the “apparent KD of MS2 coat protein” value was 23.1 nM.
Regarding “CAGUACUGAGGAUAUACAUGAGGAUCACCCAUGUUCCAAGGCUAGGAUACUAGCAAAGGUAGAAGGCAGUACUG [Mat - Exclusion 3 - Eli Mod - D26] (Eterna round: R97, puzzle: Exclusion 3)”, the “apparent KD of MS2 coat protein” value runs as follows: (input ligand: FMN 200 uM) 150 nM; (input ligand: none) 17.6 nM.
On to “CAUACACAUGAGGAUCACCCAUGUGAGGAUAUGCGUACGUUGUCCGUAGGCGACGUGCGCAGAAGGCGCAUGAG [JL-ex1-3.13 Eli mod] (puzzle: Exclusion 1)”, for which the “apparent KD of MS2 coat protein” value under setting [3] was 27.6 nM, the “apparent KD of MS2 coat protein” value under setting [1] is 90.9 nM and the “apparent KD of MS2 coat protein” value under setting [4] amounted to 91.6 nM.
Regarding “CAUACACAUGAGGAUCACCCAUGUGAGGAUAUGCGUACGUUGUCCGUAGGCGACGUGCGCAGAAGGCGCGUGUU [JL-ex1-3.15 Eli mod] (puzzle: Exclusion 1)”, under setting [1], the “apparent KD of MS2 coat protein” value came to 42.5 nM.
Turning to “CAUACUCAAGUCAGGAUAUACAGUCGAAUACGGGUGUAGAAGGGACAUGAGGAUCACCCAUGUAGAGAGUAAAG [EX-4 Malc #22] (puzzle: Brourd's mod of Exclusion 4)”, the “apparent KD of MS2 coat protein” value by setting is: under setting [3], 122 nM; under setting [1], 33 nM; under setting [4], 36.1 nM.
For the sequence “CAUACUCAAGUCAGGAUAUGCAGUCGAAUACGGGUGUAGAAGGGACAUGAGGAUCACCCAUGUAGAGAGUAAAG [EX-4 Malc #21] (puzzle: Brourd's mod of Exclusion 4)”, the “apparent KD of MS2 coat protein” value under setting [3] worked out at 99.8 nM, the “apparent KD of MS2 coat protein” value under setting [1] is 36.8 nM and the “apparent KD of MS2 coat protein” value under setting [4] was found to be 51.1 nM.
In the case of “CAUACUCAAGUGAGGAUAUAGUCUCGGAUACGAAACUAGAAGGCACAUGAGGAUCACCCAUGUAGAGAGUAAAG [EX-4 Malc #29] (puzzle: Brourd's mod of Exclusion 4)”, the “apparent KD of MS2 coat protein” value under setting [3] came to 62.7 nM, the “apparent KD of MS2 coat protein” value under setting [1] was 18.5 nM and the “apparent KD of MS2 coat protein” value under setting [4] was 13.1 nM.
For “CAUACUGAAGUUAGGAUAUGCGGCCGAAUACGGGUGUAGAAGGGACAUGAGGAUCACCCAUGUAGAUAGUAAAG [EX-4 Malc #16] (puzzle: Brourd's mod of Exclusion 4)”, the “apparent KD of MS2 coat protein” value runs as follows: under setting [3], 27.3 nM; under setting [1], 24.9 nM; under setting [4], 20.1 nM.
On to “CAUACUGAAGUUAGGAUAUUCGAACGUAUACGGAUGGAGAAGGGACAUGAGGAUCACCCAUGUAGUUAGUAAAG [EX-4 Malc #10] (puzzle: Brourd's mod of Exclusion 4)”, for which the “apparent KD of MS2 coat protein” value turned out to be 17.3 nM under setting [3], 17.4 nM under setting [1] and 22.3 nM under setting [4].
On to “CAUACUGAAGUUAGGAUAUUCGGACGUAUACGGAUGGAGAAGGGACAUGAGGAUCACCCAUGUAGAUAGUAAAG [EX-4 Malc #12] (puzzle: Brourd's mod of Exclusion 4)”, for which the “apparent KD of MS2 coat protein” value by setting is: under setting [3], 22.7 nM; under setting [1], 23.1 nM; under setting [4], 22.3 nM.
As to “CAUAGCCGUGUAAGGAUAUCCGAUCCACGGGACAAGGAGAAGGUACAUGAGGAUCACCCAUGUAAGGGUUCCUA [Vecequve] (Eterna round: R97, puzzle: Brourd's mod of Exclusion 4)”, the “apparent KD of MS2 coat protein” value (input ligand: FMN 200 uM) turned out to be 22.9 nM and the “apparent KD of MS2 coat protein” value (input ligand: none) is 21.7 nM.
